# Assay results taken from PMC4521584, “MutS/MutL crystal structure reveals that the MutS sliding clamp loads MutL onto DNA”.
# Substitutions are numbered along the chain they refer to.
# T1: MutSΔC800 D246C (UniProt P23909 1-800, D246C)
# T1 sequence: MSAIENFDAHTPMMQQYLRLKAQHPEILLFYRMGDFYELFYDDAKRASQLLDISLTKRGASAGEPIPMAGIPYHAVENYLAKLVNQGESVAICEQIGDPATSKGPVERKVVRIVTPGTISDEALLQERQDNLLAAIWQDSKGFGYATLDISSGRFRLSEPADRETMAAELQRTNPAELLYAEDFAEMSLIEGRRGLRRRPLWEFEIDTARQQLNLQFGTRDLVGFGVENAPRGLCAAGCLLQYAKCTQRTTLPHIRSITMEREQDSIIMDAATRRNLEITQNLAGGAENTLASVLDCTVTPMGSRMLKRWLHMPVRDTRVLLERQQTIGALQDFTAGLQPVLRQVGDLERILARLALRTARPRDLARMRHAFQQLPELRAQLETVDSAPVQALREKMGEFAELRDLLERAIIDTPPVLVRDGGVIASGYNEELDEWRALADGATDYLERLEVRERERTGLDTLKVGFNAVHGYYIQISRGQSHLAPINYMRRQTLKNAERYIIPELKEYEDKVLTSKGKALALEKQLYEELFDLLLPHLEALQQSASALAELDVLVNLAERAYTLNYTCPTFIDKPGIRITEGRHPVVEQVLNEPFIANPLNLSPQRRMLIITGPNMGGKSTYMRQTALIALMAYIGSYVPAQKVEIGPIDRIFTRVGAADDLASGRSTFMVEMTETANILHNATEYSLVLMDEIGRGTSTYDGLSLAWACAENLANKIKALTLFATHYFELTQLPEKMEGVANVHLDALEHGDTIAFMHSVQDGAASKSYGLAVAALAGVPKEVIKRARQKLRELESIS
# T2: MutS WT (UniProt P23909 1-853)
# T2 sequence: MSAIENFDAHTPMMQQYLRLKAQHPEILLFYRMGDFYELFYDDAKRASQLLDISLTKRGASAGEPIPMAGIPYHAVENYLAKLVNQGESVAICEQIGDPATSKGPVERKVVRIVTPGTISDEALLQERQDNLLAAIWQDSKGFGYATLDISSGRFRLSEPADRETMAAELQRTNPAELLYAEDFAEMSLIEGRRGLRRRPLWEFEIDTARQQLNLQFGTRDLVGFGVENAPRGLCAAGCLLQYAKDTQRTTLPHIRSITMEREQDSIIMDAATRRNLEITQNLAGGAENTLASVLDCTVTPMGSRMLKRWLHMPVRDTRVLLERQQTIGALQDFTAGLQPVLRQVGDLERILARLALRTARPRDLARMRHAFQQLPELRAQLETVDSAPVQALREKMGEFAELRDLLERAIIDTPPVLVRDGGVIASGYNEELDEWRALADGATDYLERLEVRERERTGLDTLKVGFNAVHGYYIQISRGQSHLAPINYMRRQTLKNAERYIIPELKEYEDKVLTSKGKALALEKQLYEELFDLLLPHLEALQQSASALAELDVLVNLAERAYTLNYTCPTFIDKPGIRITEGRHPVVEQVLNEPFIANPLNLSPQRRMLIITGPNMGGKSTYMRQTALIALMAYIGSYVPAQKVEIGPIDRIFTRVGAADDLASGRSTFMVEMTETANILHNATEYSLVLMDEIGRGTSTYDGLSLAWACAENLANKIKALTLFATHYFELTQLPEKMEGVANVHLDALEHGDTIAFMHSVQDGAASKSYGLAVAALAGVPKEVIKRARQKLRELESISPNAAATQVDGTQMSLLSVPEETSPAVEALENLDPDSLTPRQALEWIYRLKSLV
# B1: 45-bp G:T mismatch DNA (dsDNA)
# DNA 1: GTCATCCTCGTCTCAAGCTGCCAGGCACCAGTGTCAGCGTCCTAT
# DNA 2: ATAGGACGCTGACACTGGTGCTTGGCAGCTTGAGACGAGGATGAC
# B2: 100-bp G:T mismatch DNA (dsDNA)
# DNA 1: AAACAGGCTTAGGCTGGAGCTGAAGCTTAGCTTAGGATCATCGAGGATCGAGCTCGGTGCAATTCAGCGGTACCCAATTCGCCCTATAGGCATCCAGGTT
# DNA 2: AACCTGGATGCCTATAGGGCGAATTGGGTACCGCTGAATTGCACCGAGCTTGATCCTCGATGATCCTAAGCTAAGCTTCAGCTCCAGCCTAAGCCTGTTT
# B3: 41-bp G:T mismatch DNA (dsDNA)
# DNA 1: ATAGGACGCTGACACTGGTGCTTGGCAGCTTCTAATTCGAT
# DNA 2: ATCGAATTAGAAGCTGCCAGGCACCAGTGTCAGCGTCCTAT
# B4: 41-bp homoduplex, TAMRA (dsDNA)
# DNA 1: B3 DNA 1
# DNA 2: B3 DNA 2 with G20A
# Key:
# [1] = target: MutSΔC800 D246C;MutL WT (Escherichia coli?;Escherichia coli?, UniProt P23909;P23367 1-800;1-615, D246C|); test: stopped-flow FRET and FP; 400 nM MutL mixed, 1 mM ATP; more binding at equilibrium than MutSΔC800 alone; SPR: 25 mM Hepes pH 7.5, 150 mM KCl, 5 mM MgCl2, 1 mM DTT, 0.05% Tween-20, 1 mM ATP (+20% glycerol for MutL-MutS assay); FP: same but 50 mM KCl, no ATP (+10% glycerol for full-length MutL); stopped-flow: 150 mM KCl, 10 uM ADP +/- 1 mM ATP, 15 C; FRET: 25 mM Hepes pH 7.2, 150 mM KCl, 5 mM MgCl2; conditions: protein: recombinant;recombinant; tags: ;His6; chain copies: 2;2; label: FRET: Alexa Fluor 594 on top T11 and Alexa Fluor 488 on bottom T10; FP: 5' TAMRA on top; blunt, one G:T mismatch
# [2] = target: T1, MutSΔC800 D246C; test: stopped-flow FRET and FP; 10 uM ADP, no ATP; binding with kinking; SPR: 25 mM Hepes pH 7.5, 150 mM KCl, 5 mM MgCl2, 1 mM DTT, 0.05% Tween-20, 1 mM ATP (+20% glycerol for MutL-MutS assay); FP: same but 50 mM KCl, no ATP (+10% glycerol for full-length MutL); stopped-flow: 150 mM KCl, 10 uM ADP +/- 1 mM ATP, 15 C; FRET: 25 mM Hepes pH 7.2, 150 mM KCl, 5 mM MgCl2; conditions: protein: recombinant; chain copies: 2; label: FRET: Alexa Fluor 594 on top T11 and Alexa Fluor 488 on bottom T10; FP: 5' TAMRA on top; blunt, one G:T mismatch
# [3] = target: T2, MutS WT; test: SPR; 1 mM ATP, end-blocked with anti-fluorescein Fab; sliding clamp; SPR: 25 mM Hepes pH 7.5, 150 mM KCl, 5 mM MgCl2, 1 mM DTT, 0.05% Tween-20, 1 mM ATP (+20% glycerol for MutL-MutS assay); FP: same but 50 mM KCl, no ATP (+10% glycerol for full-length MutL); stopped-flow: 150 mM KCl, 10 uM ADP +/- 1 mM ATP, 15 C; FRET: 25 mM Hepes pH 7.2, 150 mM KCl, 5 mM MgCl2; conditions: protein: recombinant; chain copies: 2; label: biotin at one end (immobilized), fluorescein at the other; blunt, one G:T mismatch
# [4] = target: MutS WT;MutL WT (Escherichia coli?;Escherichia coli?, UniProt P23909;P23367 1-853;1-615, |); test: SPR; 1 mM ATP, end-blocked; MutL binds preformed MutS clamp; SPR: 25 mM Hepes pH 7.5, 150 mM KCl, 5 mM MgCl2, 1 mM DTT, 0.05% Tween-20, 1 mM ATP (+20% glycerol for MutL-MutS assay); FP: same but 50 mM KCl, no ATP (+10% glycerol for full-length MutL); stopped-flow: 150 mM KCl, 10 uM ADP +/- 1 mM ATP, 15 C; FRET: 25 mM Hepes pH 7.2, 150 mM KCl, 5 mM MgCl2; conditions: protein: recombinant;recombinant; tags: ;His6; chain copies: 2;2; label: biotin at one end (immobilized), fluorescein at the other; blunt, one G:T mismatch
# [5] = target: T1, MutSΔC800 D246C; test: SPR; 1 mM ATP, 150 mM KCl; fast off-rate; SPR: 25 mM Hepes pH 7.5, 150 mM KCl, 5 mM MgCl2, 1 mM DTT, 0.05% Tween-20, 1 mM ATP (+20% glycerol for MutL-MutS assay); FP: same but 50 mM KCl, no ATP (+10% glycerol for full-length MutL); stopped-flow: 150 mM KCl, 10 uM ADP +/- 1 mM ATP, 15 C; FRET: 25 mM Hepes pH 7.2, 150 mM KCl, 5 mM MgCl2; conditions: protein: recombinant; chain copies: 2; label: biotin at one end (immobilized), fluorescein at the other; blunt, one G:T mismatch
# [6] = target: MutLLN40 N131C (UniProt P23367 1-349, N131C); test: SPR; 1 mM ATP, 150 mM KCl; SPR: 25 mM Hepes pH 7.5, 150 mM KCl, 5 mM MgCl2, 1 mM DTT, 0.05% Tween-20, 1 mM ATP (+20% glycerol for MutL-MutS assay); FP: same but 50 mM KCl, no ATP (+10% glycerol for full-length MutL); stopped-flow: 150 mM KCl, 10 uM ADP +/- 1 mM ATP, 15 C; FRET: 25 mM Hepes pH 7.2, 150 mM KCl, 5 mM MgCl2; conditions: protein: recombinant; tags: His; label: biotin at one end (immobilized), fluorescein at the other; blunt, one G:T mismatch
# [7] = target: T1, MutSΔC800 D246C; test: SPR; 1 mM ATP; fitted maximum response 104 RU; SPR: 25 mM Hepes pH 7.5, 150 mM KCl, 5 mM MgCl2, 1 mM DTT, 0.05% Tween-20, 1 mM ATP (+20% glycerol for MutL-MutS assay); FP: same but 50 mM KCl, no ATP (+10% glycerol for full-length MutL); stopped-flow: 150 mM KCl, 10 uM ADP +/- 1 mM ATP, 15 C; FRET: 25 mM Hepes pH 7.2, 150 mM KCl, 5 mM MgCl2; conditions: protein: recombinant; chain copies: 2; label: immobilized for SPR; blunt, one G:T mismatch
# [8] = target: MutLLN40 N131C R162E/R266E/R316E (UniProt P23367 1-349, N131C;R162E;R266E;R316E); test: fluorescence polarization; 50 mM KCl; binding completely abolished; SPR: 25 mM Hepes pH 7.5, 150 mM KCl, 5 mM MgCl2, 1 mM DTT, 0.05% Tween-20, 1 mM ATP (+20% glycerol for MutL-MutS assay); FP: same but 50 mM KCl, no ATP (+10% glycerol for full-length MutL); stopped-flow: 150 mM KCl, 10 uM ADP +/- 1 mM ATP, 15 C; FRET: 25 mM Hepes pH 7.2, 150 mM KCl, 5 mM MgCl2; conditions: protein: recombinant; tags: His; label: 5' TAMRA; blunt
binder,measurement,setting,value
B1,binding result,[1],binds
same,binding result,[2],binds
B2,binding result,[3],binds
same,binding result,[4],binds
same,binding result,[5],binds
same,binding result,[6],no binding
B3,binding result,[7],binds
B4,binding result,[8],no binding
